Experiments:
[1] = molecular target: T1, calreticulin (Mus musculus, UniProt P14211); experiment: Co-immunoprecipitation of bOVA with anti-calreticulin; format: binding; details: DC2.4 cells incubated with bOVA
T1 construct: Three types of ER resident proteins; endogenous in cells; host or cells: DC2.4 mouse dendritic cell line
T1 sequence (P14211 18-416): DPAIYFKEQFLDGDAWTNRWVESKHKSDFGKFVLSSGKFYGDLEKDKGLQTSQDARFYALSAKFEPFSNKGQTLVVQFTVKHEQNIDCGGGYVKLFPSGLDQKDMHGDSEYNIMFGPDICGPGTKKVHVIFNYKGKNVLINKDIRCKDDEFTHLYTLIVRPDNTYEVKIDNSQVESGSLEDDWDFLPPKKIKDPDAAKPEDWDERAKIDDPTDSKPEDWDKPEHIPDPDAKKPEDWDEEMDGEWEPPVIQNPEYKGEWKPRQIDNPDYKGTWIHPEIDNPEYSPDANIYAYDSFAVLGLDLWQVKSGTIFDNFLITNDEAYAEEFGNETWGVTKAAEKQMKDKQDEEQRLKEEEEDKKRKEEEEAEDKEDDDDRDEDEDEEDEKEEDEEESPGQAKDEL
Experimental: (§1) 2×10^7 DC2.4 or BMDC cells were cultured for four hours in a medium containing 10 μM MG-132 in the presence of bOVA at 250 μg mL^−1. Cells were lysed in 20 mM HEPES pH7.6 containing 1% digitonin and protease inhibitors to collect biotin-labeled samples. The samples were cleared of impurities in advance using protein G sepharose (Amersham Pharmacia Biotech), and after incubation with antibodies for precipitation (anti-Sec61β, anti Sec61α, anti-VCP, anti-BiP, anti-PDI, anti-calreticulin, anti-TAP1, and anti-TAP2), the immunoprecipitates were collected using protein G. When chicken anti-CHIP antibody was used, immunoprecipitates were collected using a rabbit anti-IgY column (a person, MBL). The precipitated samples were analyzed by SDS-PAGE and Western blotting.

[2] = molecular target: T2, TAP2 (Mus musculus, UniProt P36371); experiment: Co-immunoprecipitation of bOVA with anti-TAP2; format: binding; details: DC2.4 cells incubated with bOVA
T2 construct: endogenous in cells; host or cells: DC2.4 mouse dendritic cell line
T2 sequence (P36371 1-702): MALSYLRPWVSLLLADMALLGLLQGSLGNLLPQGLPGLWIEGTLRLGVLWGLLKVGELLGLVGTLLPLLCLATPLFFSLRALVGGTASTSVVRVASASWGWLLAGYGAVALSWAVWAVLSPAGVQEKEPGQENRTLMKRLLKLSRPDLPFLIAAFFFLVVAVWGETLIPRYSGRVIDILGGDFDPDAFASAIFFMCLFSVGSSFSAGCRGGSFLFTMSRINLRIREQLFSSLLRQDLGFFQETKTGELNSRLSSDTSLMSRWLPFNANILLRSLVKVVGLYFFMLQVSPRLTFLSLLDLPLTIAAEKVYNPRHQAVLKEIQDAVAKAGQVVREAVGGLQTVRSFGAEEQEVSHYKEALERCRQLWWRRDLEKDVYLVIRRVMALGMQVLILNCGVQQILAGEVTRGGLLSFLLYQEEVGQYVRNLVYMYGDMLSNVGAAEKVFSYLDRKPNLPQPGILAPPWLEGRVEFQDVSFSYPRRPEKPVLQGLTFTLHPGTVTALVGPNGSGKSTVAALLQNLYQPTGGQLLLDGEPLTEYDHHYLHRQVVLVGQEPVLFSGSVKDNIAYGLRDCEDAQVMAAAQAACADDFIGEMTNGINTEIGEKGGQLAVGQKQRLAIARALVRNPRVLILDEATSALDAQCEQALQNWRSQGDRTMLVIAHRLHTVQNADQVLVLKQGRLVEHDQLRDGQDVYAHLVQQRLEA
T2 sequence (P21958 1-724 partner): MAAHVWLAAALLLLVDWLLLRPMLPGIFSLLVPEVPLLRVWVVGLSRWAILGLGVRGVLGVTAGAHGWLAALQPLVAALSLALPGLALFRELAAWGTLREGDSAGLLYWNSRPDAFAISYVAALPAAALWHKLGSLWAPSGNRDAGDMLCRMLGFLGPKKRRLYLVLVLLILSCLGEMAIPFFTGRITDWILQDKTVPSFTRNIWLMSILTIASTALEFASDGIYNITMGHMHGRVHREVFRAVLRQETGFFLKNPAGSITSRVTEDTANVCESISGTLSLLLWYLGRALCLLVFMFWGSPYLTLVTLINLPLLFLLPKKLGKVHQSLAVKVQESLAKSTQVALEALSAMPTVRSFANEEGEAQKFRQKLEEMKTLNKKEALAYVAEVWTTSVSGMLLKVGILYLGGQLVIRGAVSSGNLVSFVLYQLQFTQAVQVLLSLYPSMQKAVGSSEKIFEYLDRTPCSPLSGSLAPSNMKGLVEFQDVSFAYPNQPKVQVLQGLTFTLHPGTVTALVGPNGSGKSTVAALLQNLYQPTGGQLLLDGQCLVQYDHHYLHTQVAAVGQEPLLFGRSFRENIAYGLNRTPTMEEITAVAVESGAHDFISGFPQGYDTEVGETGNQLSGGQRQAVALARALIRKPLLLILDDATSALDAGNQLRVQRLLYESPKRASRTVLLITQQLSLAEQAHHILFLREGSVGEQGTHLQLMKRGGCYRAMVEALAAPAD
Experimental: as §1

B1: bOVA: biotin-labeled OVA antigen (protein)
chain: GSIGAASMEFCFDVFKELKVHHANENIFYCPIAIMSALAMVYLGAKDSTRTQINKVVRFDKLPGFGDSIEAQCGTSVNVHSSLRDILNQITKPNDVYSFSLASRLYAEERYPILPEYLQCVKELYRGGLEPINFQTAADQARELINSWVESQTNGIIRNVLQPSSVDSQTAMVLVNAIVFKGLWEKAFKDEDTQAMPFRVTEQESKPVQMMYQIGLFRVASMASEKMKILELPFASGTMSMLVLLPDEVSGLEQLESIINFEKLTEWTSSNVMEERKIKVYLPRMKMEEKYNLTSVLMAMGITDVFSSSANLSGISSAESLKISQAVHAAHAEINEAGREVVGSAEAGVDAASVSEEFRADHPFLFCIKHIATNAVLFFGRCVSP
[1]
  interaction with calreticulin (co-immunoprecipitation): interacts
[2]
  interaction with TAP2 (co-immunoprecipitation): does not interact

Source: patent US20080064048A1, “Methods for Selecting Proteins that are Readily Presented as Antigens on Dendritic Cells” (Medical and Biological Laboratories, Co., Ltd., priority 2004, published 2008)
